Source: the supplement of paper PMC10065799, “High-throughput profiling of sequence recognition by tyrosine kinases and SH2 domains using bacterial peptide display” (eLife, 2023)

Assays:
Fyn = Fyn (UniProt P06241); experiment: phosphorylation enrichment, bacterial display (enrichment ratio); higher = better substrate or ligand; peptides without Tyr show the background
Fer (mouse) = experiment: as above
Fes = Fes (UniProt P07332); experiment: as above
Jak2 = Jak2 (UniProt O60674); experiment: as above
Hck = Hck (UniProt P08631); experiment: as above
Hck, sequence (P08631 whole entry, looked up): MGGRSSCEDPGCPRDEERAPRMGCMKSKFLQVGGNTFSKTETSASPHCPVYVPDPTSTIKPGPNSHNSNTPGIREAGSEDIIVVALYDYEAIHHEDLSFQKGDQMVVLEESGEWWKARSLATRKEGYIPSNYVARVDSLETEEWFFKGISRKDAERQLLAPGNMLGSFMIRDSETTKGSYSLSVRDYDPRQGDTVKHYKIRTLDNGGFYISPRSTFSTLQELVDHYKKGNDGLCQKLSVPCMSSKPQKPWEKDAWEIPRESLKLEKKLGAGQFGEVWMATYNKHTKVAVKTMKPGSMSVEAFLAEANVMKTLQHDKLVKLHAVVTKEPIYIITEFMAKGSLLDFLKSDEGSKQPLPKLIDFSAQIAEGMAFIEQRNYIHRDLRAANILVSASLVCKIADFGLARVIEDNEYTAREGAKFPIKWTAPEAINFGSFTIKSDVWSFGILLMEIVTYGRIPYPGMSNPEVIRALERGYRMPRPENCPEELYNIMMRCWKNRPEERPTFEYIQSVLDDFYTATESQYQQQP

FGFR3 = FGFR3 (UniProt P22607); experiment: as above
FGFR3, sequence (P22607 whole entry, looked up): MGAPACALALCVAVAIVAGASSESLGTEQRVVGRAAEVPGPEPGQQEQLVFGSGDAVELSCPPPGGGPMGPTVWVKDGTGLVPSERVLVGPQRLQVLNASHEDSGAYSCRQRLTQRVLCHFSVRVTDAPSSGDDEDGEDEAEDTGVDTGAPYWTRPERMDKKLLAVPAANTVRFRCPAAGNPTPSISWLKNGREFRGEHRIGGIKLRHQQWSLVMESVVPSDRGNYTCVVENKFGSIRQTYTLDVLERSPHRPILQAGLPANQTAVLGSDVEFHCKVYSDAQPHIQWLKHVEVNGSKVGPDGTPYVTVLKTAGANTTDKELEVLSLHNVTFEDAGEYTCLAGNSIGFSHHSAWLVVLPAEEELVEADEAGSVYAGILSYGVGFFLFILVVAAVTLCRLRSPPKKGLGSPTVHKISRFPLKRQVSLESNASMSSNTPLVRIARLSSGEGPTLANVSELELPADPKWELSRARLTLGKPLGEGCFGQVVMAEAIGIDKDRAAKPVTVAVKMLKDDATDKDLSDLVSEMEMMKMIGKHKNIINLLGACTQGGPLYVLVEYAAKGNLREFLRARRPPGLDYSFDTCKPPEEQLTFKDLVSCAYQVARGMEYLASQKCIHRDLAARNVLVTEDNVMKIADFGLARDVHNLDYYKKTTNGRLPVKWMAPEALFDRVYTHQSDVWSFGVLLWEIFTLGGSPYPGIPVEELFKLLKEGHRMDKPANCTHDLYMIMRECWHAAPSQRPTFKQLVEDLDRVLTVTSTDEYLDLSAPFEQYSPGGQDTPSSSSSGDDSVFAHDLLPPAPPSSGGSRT

EPHB2 = EPHB2 (UniProt P29323); experiment: as above
c-Src = experiment: as above
EPHB1 = EPHB1 (UniProt P54762); experiment: as above
EPHB1, sequence (P54762 whole entry, looked up): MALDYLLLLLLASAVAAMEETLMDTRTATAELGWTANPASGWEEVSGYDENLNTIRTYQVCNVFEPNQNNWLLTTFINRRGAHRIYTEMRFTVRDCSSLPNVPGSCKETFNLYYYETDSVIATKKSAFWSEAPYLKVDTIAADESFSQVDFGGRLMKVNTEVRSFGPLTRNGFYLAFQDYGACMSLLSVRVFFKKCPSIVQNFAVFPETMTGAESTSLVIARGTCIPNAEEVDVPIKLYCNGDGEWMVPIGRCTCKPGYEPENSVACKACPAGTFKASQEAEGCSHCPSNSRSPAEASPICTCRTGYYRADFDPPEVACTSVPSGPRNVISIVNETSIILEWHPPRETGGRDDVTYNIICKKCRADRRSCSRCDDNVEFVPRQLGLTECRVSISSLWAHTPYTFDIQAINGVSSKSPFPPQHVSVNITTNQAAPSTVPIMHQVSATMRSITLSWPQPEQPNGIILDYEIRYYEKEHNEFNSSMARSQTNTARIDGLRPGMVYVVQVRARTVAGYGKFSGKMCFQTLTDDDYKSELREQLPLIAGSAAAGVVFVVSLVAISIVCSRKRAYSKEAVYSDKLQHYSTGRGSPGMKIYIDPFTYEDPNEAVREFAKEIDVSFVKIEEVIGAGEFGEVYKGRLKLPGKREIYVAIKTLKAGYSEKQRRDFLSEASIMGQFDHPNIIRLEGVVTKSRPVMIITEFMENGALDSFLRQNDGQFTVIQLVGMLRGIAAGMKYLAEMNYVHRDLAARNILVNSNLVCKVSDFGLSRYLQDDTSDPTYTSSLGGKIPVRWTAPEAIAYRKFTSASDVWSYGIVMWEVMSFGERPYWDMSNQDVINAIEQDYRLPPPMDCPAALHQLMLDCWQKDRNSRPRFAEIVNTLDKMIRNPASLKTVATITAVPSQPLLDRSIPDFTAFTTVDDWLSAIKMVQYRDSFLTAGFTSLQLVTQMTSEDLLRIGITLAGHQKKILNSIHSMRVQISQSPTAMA

FGFR1 = FGFR1 (UniProt P11362); experiment: as above
MERTK = MERTK (UniProt Q12866); experiment: as above
MERTK, sequence (Q12866 whole entry, looked up): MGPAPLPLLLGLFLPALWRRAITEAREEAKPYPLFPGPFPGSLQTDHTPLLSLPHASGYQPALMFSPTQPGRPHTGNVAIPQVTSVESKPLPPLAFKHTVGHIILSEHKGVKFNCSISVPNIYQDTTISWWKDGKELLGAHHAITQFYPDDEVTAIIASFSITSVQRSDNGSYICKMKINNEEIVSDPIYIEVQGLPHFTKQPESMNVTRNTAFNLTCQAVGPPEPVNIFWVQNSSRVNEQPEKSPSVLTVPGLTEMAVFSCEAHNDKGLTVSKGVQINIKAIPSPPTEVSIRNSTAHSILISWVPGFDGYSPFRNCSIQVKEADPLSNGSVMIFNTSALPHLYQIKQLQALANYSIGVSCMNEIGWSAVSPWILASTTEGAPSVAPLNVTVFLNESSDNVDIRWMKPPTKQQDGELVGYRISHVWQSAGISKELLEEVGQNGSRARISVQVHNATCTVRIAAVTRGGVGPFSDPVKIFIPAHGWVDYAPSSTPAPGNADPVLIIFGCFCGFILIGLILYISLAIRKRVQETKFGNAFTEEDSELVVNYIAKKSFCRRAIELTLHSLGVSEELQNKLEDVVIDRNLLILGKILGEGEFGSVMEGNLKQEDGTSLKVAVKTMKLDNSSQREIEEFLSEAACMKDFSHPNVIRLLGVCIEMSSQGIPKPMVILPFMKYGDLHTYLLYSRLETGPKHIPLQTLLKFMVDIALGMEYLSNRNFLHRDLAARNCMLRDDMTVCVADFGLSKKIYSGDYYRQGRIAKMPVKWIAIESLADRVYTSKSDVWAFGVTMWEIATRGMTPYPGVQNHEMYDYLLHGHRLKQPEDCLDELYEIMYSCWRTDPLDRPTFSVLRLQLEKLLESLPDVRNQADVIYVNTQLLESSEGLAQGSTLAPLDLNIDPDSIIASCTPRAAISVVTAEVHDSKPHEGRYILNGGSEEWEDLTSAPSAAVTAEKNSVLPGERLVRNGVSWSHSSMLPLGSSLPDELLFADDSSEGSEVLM

AncSZ = experiment: as above
c-Abl (mouse) = experiment: as above
c-Src SH2 = experiment: SH2 binding enrichment of the phosphorylated peptide, bacterial display (enrichment ratio); higher = better substrate or ligand; peptides without Tyr show the background
SHP2-C SH2 = experiment: as above
Grb2 SH2 = Grb2 SH2 (UniProt P62993); experiment: as above
Grb2 SH2, sequence (P62993 whole entry, looked up, the tested form may be a part): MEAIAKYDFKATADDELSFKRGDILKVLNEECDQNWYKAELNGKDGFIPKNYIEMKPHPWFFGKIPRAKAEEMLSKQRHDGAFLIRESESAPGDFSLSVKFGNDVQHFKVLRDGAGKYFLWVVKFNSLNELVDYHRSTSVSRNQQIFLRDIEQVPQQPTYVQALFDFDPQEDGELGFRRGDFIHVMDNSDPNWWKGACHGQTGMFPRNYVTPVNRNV
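Throughout, for SH2 binding enrichment of the phosphorylated peptide, bacterial display: peptide library displayed on the E. coli surface as eCPX fusions, selected cells deep-sequenced, score is each peptide's frequency after selection divided by its frequency in the input.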
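Throughout, for phosphorylation enrichment, bacterial display: 11-residue human phosphosite peptides and single-mutation variants displayed on the E. coli surface, counted by deep sequencing, each peptide's frequency after selection divided by its frequency in the unselected input library; frequency after pTyr selection over input frequency; kinase dosed for 20-30% of maximal phosphorylation in three min.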

Fes, sequence (P07332 whole entry, looked up): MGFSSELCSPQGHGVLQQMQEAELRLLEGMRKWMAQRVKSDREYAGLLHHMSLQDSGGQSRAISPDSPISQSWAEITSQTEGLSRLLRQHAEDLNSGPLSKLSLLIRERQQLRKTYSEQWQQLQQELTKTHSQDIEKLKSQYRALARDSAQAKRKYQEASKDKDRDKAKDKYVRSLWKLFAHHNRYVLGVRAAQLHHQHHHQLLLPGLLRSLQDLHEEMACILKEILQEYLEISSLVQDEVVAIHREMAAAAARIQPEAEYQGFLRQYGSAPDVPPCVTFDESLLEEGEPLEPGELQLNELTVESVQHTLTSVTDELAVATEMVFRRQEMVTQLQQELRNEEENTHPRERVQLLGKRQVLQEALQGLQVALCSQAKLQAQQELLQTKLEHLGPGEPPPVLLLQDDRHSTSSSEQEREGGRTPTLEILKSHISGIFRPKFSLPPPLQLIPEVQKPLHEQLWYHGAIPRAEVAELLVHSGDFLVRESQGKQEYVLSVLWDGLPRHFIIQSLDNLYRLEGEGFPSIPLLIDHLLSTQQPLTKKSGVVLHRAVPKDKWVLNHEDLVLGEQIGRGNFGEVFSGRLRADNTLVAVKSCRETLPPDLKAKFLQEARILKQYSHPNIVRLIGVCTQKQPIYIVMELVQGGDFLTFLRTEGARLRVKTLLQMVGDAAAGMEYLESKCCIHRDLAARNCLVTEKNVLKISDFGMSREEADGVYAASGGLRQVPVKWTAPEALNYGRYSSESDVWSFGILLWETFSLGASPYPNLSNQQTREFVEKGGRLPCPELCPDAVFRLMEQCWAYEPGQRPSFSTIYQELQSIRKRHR
Fyn, sequence (P06241 whole entry, looked up): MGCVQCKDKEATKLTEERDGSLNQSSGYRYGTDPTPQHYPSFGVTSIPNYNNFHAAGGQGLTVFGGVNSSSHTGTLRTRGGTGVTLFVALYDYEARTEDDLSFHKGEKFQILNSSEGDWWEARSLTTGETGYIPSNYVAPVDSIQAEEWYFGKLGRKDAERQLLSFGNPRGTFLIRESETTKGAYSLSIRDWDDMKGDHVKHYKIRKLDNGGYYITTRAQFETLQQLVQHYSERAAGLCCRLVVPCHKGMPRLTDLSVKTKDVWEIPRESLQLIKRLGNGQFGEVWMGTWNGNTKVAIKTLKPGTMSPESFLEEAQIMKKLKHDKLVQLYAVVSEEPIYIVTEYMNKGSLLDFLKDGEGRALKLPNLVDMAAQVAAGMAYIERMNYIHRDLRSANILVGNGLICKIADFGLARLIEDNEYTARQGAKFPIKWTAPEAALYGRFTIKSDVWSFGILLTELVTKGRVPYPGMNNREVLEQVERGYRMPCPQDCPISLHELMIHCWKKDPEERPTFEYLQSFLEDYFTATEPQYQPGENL

Row | Sequence | phosphorylation enrichment (Fyn) | phosphorylation enrichment (Fer (mouse)) | phosphorylation enrichment (Fes) | phosphorylation enrichment (Jak2) | phosphorylation enrichment (Hck) | phosphorylation enrichment (FGFR3) | phosphorylation enrichment (EPHB2) | phosphorylation enrichment (c-Src) | phosphorylation enrichment (EPHB1) | phosphorylation enrichment (FGFR1) | phosphorylation enrichment (MERTK) | phosphorylation enrichment (AncSZ) | phosphorylation enrichment (c-Abl (mouse)) | SH2 binding enrichment (c-Src SH2) | SH2 binding enrichment (SHP2-C SH2) | SH2 binding enrichment (Grb2 SH2)
1 | LGQRIYQYIQS [DYRK1B_Y271] | 4.18 | 18.1 | 2.86 | 1.3 | 8.12 | 3.3 | 12.5 | 5.08 | 20.9 | 5.29 | 13.5 | 1.54 | 2.74 | 4.11 | 1.2 | 1.02
2 | LHAALYKRKLL [TTLL5_Y542_E543K] | 0.464 | 0.41 | 0.702 | 1.17 | 0.536 | 0.518 | 0.527 | 0.551 | 0.454 | 0.483 | 0.502 | 0.771 | 1.24 | 0.517 | 2.26 | 0.858
3 | LHRHAYPEQQQ [DPPA2_Y127_R131Q] | 0.824 | 0.743 | 0.901 | 0.645 | 0.474 | 0.828 | 0.811 | 0.559 | 0.837 | 1.07 | 0.401 | 0.726 | 0.716 | 0.906 | 0.839 | 1.02
4 | LHVKMYNFLRS [ADGRG7_Y760_R756H] | 0.615 | 1.11 | 1.89 | 1.69 | 0.625 | 0.94 | 0.778 | 0.711 | 0.831 | 0.714 | 0.85 | 1.97 | 2.26 | 0.827 | 1.07 | 1.28
5 | LIDGFYRLTAD [JAK2_Y373_YF] | 0.698 | 0.523 | 1.51 | 1.29 | 0.807 | 0.991 | 0.883 | 0.86 | 0.747 | 0.754 | 0.741 | 1.29 | 0.816 | 0.503 | 0.759 | 0.918
6 | LINLKYSVEEE [PCDH19_Y27] | 0.579 | 0.806 | 2.46 | 1.88 | 0.447 | 0.895 | 0.755 | 1.19 | 0.755 | 0.525 | 0.583 | 1.36 | 1.12 | 0.525 | 0.548 | 0.868
7 | LINSVYGCSRQ [TMPRSS6_Y290_T287N] | 3.32 | 0.863 | 1.57 | 1.82 | 4.43 | 0.974 | 1 | 5.15 | 1.01 | 1.02 | 1.21 | 1.43 | 1.37 | 0.589 | 1.12 | 0.727
8 | LKALKYKSMKI [ITGA11_Y1098] | 0.641 | 0.452 | 0.701 | 0.735 | 0.424 | 0.619 | 0.31 | 0.322 | 0.299 | 0.225 | 0.336 | 0.374 | 0.568 | 0.783 | 0.876 | 1.34
9 | LKGIRYLTSGL [PIGA_Y82_R77L] | 1.05 | 1.01 | 1.09 | 0.959 | 0.937 | 0.452 | 0.913 | 0.762 | 1.12 | 0.691 | 0.644 | 1.03 | 1.28 | 0.564 | 1.03 | 1.32
10 | LKLWDYSRGRC [WDR5B_Y239] | 0.66 | 0.796 | 1.19 | 0.724 | 0.451 | 0.694 | 1.01 | 0.39 | 0.73 | 0.597 | 0.736 | 0.966 | 0.643 | 0.74 | 0.501 | 0.99
11 | LKSEMYQKLFK [RGS13_Y146_L150F] | 0.493 | 0.596 | 0.993 | 1.77 | 0.756 | 0.923 | 0.614 | 0.626 | 0.5 | 0.715 | 0.7 | 1.02 | 0.769 | 0.982 | 1.24 | 0.829
12 | LKVDVYGRSHK [FUT3_Y222] | 0.324 | 0.441 | 0.869 | 0.588 | 0.625 | 1.1 | 0.778 | 0.379 | 0.553 | 0.782 | 0.37 | 1 | 0.629 | 0.561 | 0.621 | 0.715
13 | LLFRVYGLESL [INSR_Y94] | 0.752 | 0.757 | 1.76 | 1.77 | 0.465 | 1.4 | 0.828 | 0.565 | 0.96 | 0.542 | 0.792 | 1.88 | 1.15 | 0.588 | 0.734 | 0.718
14 | LLKKIYLMLDN [STAT1_Y203_M202I] | 0.562 | 0.67 | 2.38 | 2.05 | 0.85 | 1.31 | 0.817 | 0.977 | 1.15 | 1.08 | 0.822 | 1.85 | 1.85 | 0.896 | 1.1 | 0.899
15 | LLNAIYLSAKR [SERPING1_Y294_W299R] | 0.86 | 0.85 | 1.43 | 1.65 | 1.36 | 0.963 | 0.846 | 1.09 | 0.659 | 0.617 | 0.947 | 1.58 | 1.61 | 1.11 | 1.59 | 1.64
16 | LLVVLCKYRCY [PSEN1_Y154_Y154C] | 0.377 | 0.353 | 1.01 | 0.786 | 0.382 | 0.536 | 0.466 | 0.369 | 0.532 | 0.414 | 0.315 | 0.873 | 0.606 | 1.33 | 1.99 | 1.66
17 | LNTFHHAGVSA [POLR2A_Y1109_Y1109H] | 0.356 | 0.766 | 2.04 | 1.19 | 0.575 | 0.731 | 0.76 | 1.17 | 0.632 | 0.462 | 0.883 | 0.884 | 1.36 | 0.547 | 0.65 | 0.956

Row | Sequence | phosphorylation enrichment (Fyn) | phosphorylation enrichment (Fer (mouse)) | phosphorylation enrichment (Fes) | phosphorylation enrichment (Jak2) | phosphorylation enrichment (Hck) | phosphorylation enrichment (FGFR3) | phosphorylation enrichment (EPHB2) | phosphorylation enrichment (c-Src) | phosphorylation enrichment (EPHB1) | phosphorylation enrichment (FGFR1) | phosphorylation enrichment (MERTK) | phosphorylation enrichment (AncSZ) | phosphorylation enrichment (c-Abl (mouse)) | SH2 binding enrichment (c-Src SH2) | SH2 binding enrichment (SHP2-C SH2) | SH2 binding enrichment (Grb2 SH2)
18 | LQTFHYHGHSM [PDHA1_Y289_R288H_YF] | 0.501 | 0.435 | 0.715 | 0.641 | 0.533 | 0.536 | 0.448 | 1.2 | 0.322 | 0.419 | 0.501 | 0.599 | 0.493 | 1.27 | 1.47 | 1.47
19 | LQTYRYHGLSM [PDHA1_Y289_H292L] | 0.703 | 0.572 | 1.13 | 0.576 | 0.648 | 0.915 | 0.746 | 0.471 | 0.673 | 0.749 | 0.443 | 0.927 | 0.564 | 0.399 | 0.815 | 1.25
20 | LREIRYQGGNR [VWF_Y1570_V1565L] | 0.756 | 0.537 | 0.636 | 0.643 | 0.469 | 0.551 | 0.518 | 0.488 | 0.385 | 0.671 | 0.52 | 0.796 | 0.653 | 0.454 | 0.504 | 0.835
21 | LRGVIYVILRK [PMP22_Y153_S149R] | 0.65 | 0.577 | 1.09 | 1.15 | 0.509 | 0.833 | 0.551 | 0.713 | 0.58 | 0.665 | 0.393 | 2.21 | 0.778 | 0.373 | 0.359 | 0.893
22 | LRNIDYFRLDG [ATRX_Y2083_YF] | 2.77 | 1.7 | 4.09 | 26.8 | 1.63 | 10.8 | 3.05 | 3.74 | 2.95 | 21.5 | 3.41 | 3.71 | 5.39 | 0.595 | 22.6 | 0.761
23 | LRVGFYESDVM [A2M_Y708] | 1.28 | 1.62 | 3.12 | 2.04 | 0.996 | 2.89 | 0.934 | 1.33 | 1.86 | 1.39 | 2.61 | 2.97 | 1.9 | 4.14 | 1.02 | 0.934
24 | LRYDSYWSYCN [SLC20A2_Y433_S434W] | 5.26 | 1.51 | 1.53 | 2.4 | 4.95 | 3.72 | 9.36 | 4.87 | 7.63 | 3.88 | 5.37 | 2.25 | 1.68 | 1.43 | 0.803 | 0.974
25 | LSIQTYSALNF [DES_Y423_P419S] | 4.8 | 2.61 | 2.14 | 1.76 | 6.9 | 1.09 | 4.34 | 5.21 | 3.92 | 0.991 | 6.97 | 1.58 | 1.46 | 1.34 | 1.43 | 0.824
26 | LSVMSYDLGMF [GBA3_Y174] | 0.759 | 0.602 | 1.59 | 1.44 | 0.947 | 1.13 | 0.707 | 0.75 | 0.876 | 0.789 | 0.62 | 1.31 | 1.07 | 0.603 | 0.887 | 0.624
27 | LTDTVYSSSSA [OR4C12_Y71_I67T] | 2.53 | 1.69 | 1.15 | 1.09 | 1.93 | 0.586 | 0.374 | 2.33 | 0.323 | 0.694 | 0.58 | 1.12 | 0.911 | 0.349 | 0.899 | 1.07
28 | LTFPDYLPCSV [SAG_Y129] | 0.427 | 0.715 | 1.44 | 2.91 | 0.479 | 3.07 | 0.601 | 0.535 | 0.879 | 3.74 | 0.463 | 2.34 | 1.13 | 0.472 | 0.739 | 0.748
29 | LTGIAYGLPHW [SLC22A14_Y291_S292G] | 0.578 | 0.424 | 1.25 | 0.924 | 0.631 | 0.618 | 0.558 | 0.574 | 0.56 | 0.523 | 0.508 | 1.16 | 0.705 | 0.768 | 1.23 | 0.89
30 | LVMFIYAIFGM [SCN1A_Y1684] | 1.21 | 1.19 | 1.88 | 1.94 | 0.777 | 1.41 | 1.03 | 1.99 | 1.03 | 0.952 | 1.13 | 1.49 | 1.55 | 1.2 | 1.8 | 2.09
31 | LVMFIYDIFGM [SCN1A_Y1684_A1685D] | 8.72 | 3.13 | 3.08 | 1.72 | 5.56 | 1.9 | 2.92 | 6.25 | 2.11 | 1.66 | 5.95 | 5.48 | 1.55 | 1.67 | 2.28 | 1.74
32 | LVPPRYVRSEI [PKP2_Y194_A195V] | 0.431 | 0.522 | 0.94 | 0.685 | 0.321 | 0.605 | 0.645 | 0.555 | 0.538 | 0.469 | 0.588 | 0.612 | 0.58 | 0.506 | 0.632 | 0.788
33 | LVRPPYSYLAL [FOXI1_Y126_S129L] | 0.438 | 1.23 | 0.645 | 2.16 | 0.678 | 1.33 | 0.536 | 0.498 | 0.63 | 1.62 | 2.78 | 0.602 | 0.757 | 3.64 | 3.61 | 1.06
